From the RNAGym collection of RNA variant scans (doi:10.1073/pnas.2313332121) come the findings set out here.

B1: TPR 5TU (parent)
chain: GGAUCUUCUCGAUCUAACAAAAAAGACAAAUCUGCCACAAAGCUUGAGAGCAUCUUCGGAUGCAGAGGCGGCAGCCUUCGGUGGCGCGAUAGCGCCAACGUUCUCAACUAUGACACGCAAAACGCGUGCUCCGUUGAAUGGAGUUUAUCAUG

Variants at the floor of the assay were thinned out. A value given as a limit tells only on which side of the number the result lay.

The variants in the series derive from B1. Nature of the series: polymerase ribozyme fitness, log enrichment relative to wild type (log ratio); higher = more active; in vitro selection for triplet polymerase activity. The gist of the method:
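Mutant libraries of each subunit of a heterodimeric triplet polymerase ribozyme were built by PCR and transcribed. Each library went through one round of in vitro selection in triplicate: annealing with biotinylated primer, partner subunit and triplets, frozen incubation at −7 °C, gel excision of extended constructs, streptavidin-bead capture and RT-PCR. Input and output libraries were Illumina-sequenced; only genotypes with ≥10 input reads and ≥1 read per output were kept. Fitness is log2(genotype enrichment/wild-type enrichment), using inverse-variance-weighted replicate averages.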
Turning to A21G G143A, the “polymerase ribozyme fitness (log ratio)” value is -0.569.
Take C18U U53G C54A A91G A110G C114G: the “polymerase ribozyme fitness (log ratio)” value is ≤ -4.2.
As to C18A U56A G58C G94A, the “polymerase ribozyme fitness (log ratio)” value was -0.964.
Under G25A C27G U44A G86C A97U A110C stands ≤ -4.2.
The result for A30U U82A C85A U104A reads ≤ -4.2.
The result for C54G C85U C96G G112C U130A A142G C149A reads ≤ -4.2; that for A24G U55G, -3.78.
Turning to G58C A115U U127C U144G, the “polymerase ribozyme fitness (log ratio)” value was 0.143.
Under A12C A19U U31G A41C C93A G141A stands -3.98; under A20U A37C A52G G124U, -2.09.
Under U7G A23C A28U C38G A121G stands ≤ -4.2; under A16G C27G U44A C79G, ≤ -4.2.
Under G70U A73U A89G C95G G141U stands ≤ -4.2; under U55A C93G G141C, -3.82.
As to A30U G58C U90G C95A, the “polymerase ribozyme fitness (log ratio)” value is ≤ -4.2.
On to A17G G50C, for which the “polymerase ribozyme fitness (log ratio)” value was -2.81.
The result for U31A U53G G84U C96G reads ≤ -4.2; that for A60C C93U, -2.64.
The result for C54G C96A reads -2.41; that for A12C C93U, -2.17.
Consider G11A A39U A97C, for which the “polymerase ribozyme fitness (log ratio)” value is -3.26.
Under U56A U82C C93U stands -1.41; under U56A G70C U78A U82A C131A, ≤ -4.2.
In the case of A41U G74A G94C, the “polymerase ribozyme fitness (log ratio)” value was ≤ -4.2.
With A24U A29C A73G G86U A89C G140U A150G, the “polymerase ribozyme fitness (log ratio)” value is ≤ -4.2.
On to C76U G94A C105U, for which the “polymerase ribozyme fitness (log ratio)” value was -0.337.
Under C93A U101G stands -3.29; under C5A C14G G94C G143A, -4.07; under U31A G88A U90A G133A, ≤ -4.2.
The result for A26U A49U C87A U134G reads ≤ -4.2.
Under C10G C18U C85G G133U A138G stands ≤ -4.2; under U15G C51A A52C C69U C85A, ≤ -4.2; under U9A A24U A121U A122U G141A, ≤ -4.2.
Consider C85U G141U, for which the “polymerase ribozyme fitness (log ratio)” value stood at 1.07.
Under C85A G126A stands -1.32.
The result for A21U G80U G94A A147U reads -0.607; that for A73C A113C, ≤ -4.2; that for A98U U148A, -3.03.
The result for A37U G88U G92C A122G G133U G143A A150U reads -4.06; that for A24C A73U C79U G88U G126A, ≤ -4.2.
For the variant A39U A64U C87G, the “polymerase ribozyme fitness (log ratio)” value was ≤ -4.2.
As to G124C C132A, the “polymerase ribozyme fitness (log ratio)” value was -2.4.
The result for C35A A89U U90G C99U U144G reads ≤ -4.2.
The result for G50C C93A reads ≤ -4.2; that for C75G A89U C93G U104G A147C, ≤ -4.2.
Regarding U4C A49G C51A C87A C132U A150C, the “polymerase ribozyme fitness (log ratio)” value is ≤ -4.2.
The result for U134A A142C reads -2.66.
Consider A91G C96U A106G, for which the “polymerase ribozyme fitness (log ratio)” value was -2.5.
In the case of C32G U45C, the “polymerase ribozyme fitness (log ratio)” value is -4.16.
Regarding A41U A120C C125A A142C, the “polymerase ribozyme fitness (log ratio)” value was -4.12.
Take U55G C85G: the “polymerase ribozyme fitness (log ratio)” value is -1.66.
As for G48C C69A C149U, the “polymerase ribozyme fitness (log ratio)” value is -2.77.
For the variant A16G C35U C116G, the “polymerase ribozyme fitness (log ratio)” value is -1.98.
As for A52C G58C A91U A121U, the “polymerase ribozyme fitness (log ratio)” value was ≤ -4.2.
Consider A52G C57G C87U, for which the “polymerase ribozyme fitness (log ratio)” value was -1.27.
Under U13C G94A G141U stands 0.369; under U4A C57A C75G U134G, ≤ -4.2; under C57U C95A G112U U151A, -4.06.
Under G34U C51A G84C stands ≤ -4.2; under G70A G88C C96G U134G, ≤ -4.2; under G50U A73U C87U, -2.26.
The result for A52G G58C G68A C76A C85U U90G G117U reads ≤ -4.2.
With U61A C87U G92A A106G A122U, the “polymerase ribozyme fitness (log ratio)” value was -2.84.
Under A29C C35U G50C G58U U61G C96A U134A stands ≤ -4.2; under A16U A22U G117A C132A U151G, ≤ -4.2.
For C14A A17U A24C C57U G58C C87A, the “polymerase ribozyme fitness (log ratio)” value is ≤ -4.2.
Under G50C U56A A73G C125A stands -4.1; under A20C G48U G83U, -2.07.
The result for A17C U53G U55A A121G reads -1.71; that for G50C C95U U146G, -3.64; that for A39U A47U C96U A122G G124A, -3.16.
The result for C8U U15G A17G A30G U44G C76A C87A reads ≤ -4.2.
For G81C C85U A107C G126A, the “polymerase ribozyme fitness (log ratio)” value is -4.16.
For A21C C116U, the “polymerase ribozyme fitness (log ratio)” value turned out to be 0.668.
Turning to A60U C96U, the “polymerase ribozyme fitness (log ratio)” value is -0.416.
Under C54A G136A stands -0.852; under C14G A26U C27G C35A A52C A91G A107G G126U U130A, ≤ -4.2; under U33C C57U G80U G83U C87U G128U, ≤ -4.2.
A23U G86U A89G C105G C129U: the “polymerase ribozyme fitness (log ratio)” value was ≤ -4.2.
Consider C35A U44A C63U G70A G80C C87G, for which the “polymerase ribozyme fitness (log ratio)” value is ≤ -4.2.
For U77G G86U U102C G140C, the “polymerase ribozyme fitness (log ratio)” value is ≤ -4.2.
The result for C18G A60C G84U C125U reads -3.76; that for A24G G42U C72A A91U G92A U102G G136U, ≤ -4.2.
